Measured values taken from US20210077575A1, “NANOPARTICLES FOR THE TARGETED DELIVERY OF THERAPEUTIC POLYPEPTIDES” (Cedars-Sinai Medical Center, priority 2018, published 2021).

Experiment: Nanoparticle size by dynamic light scattering (Example 2)
Type: physicochemical
Settings: distribution by number; FIG. 2D-F, GeloninD10 series
Protocol: The composition comprising the HerPBK10-GFPD10 nanoparticles and the composition comprising the HerPBK10-GeloninD10 were then subjected to dynamic light scattering (DLS) to determine the diameter of the resulting nanoparticles. Solutions of GFPD10 (no HerPBK10), GeloninD10 (no HerPBK10) and HerPBK10 (no GFPD10 or GeloninD10) were also measured by DLS.

B1: GeloninD10: cytotoxic polypeptide gelonin with a C-terminal deca-aspartic acid tag (protein)
chain: GLDTVSFSTKGATYITYVNFLNELRVKLKPEGNSHGIPLLRKKCDDPGKCFVLVALSNDNGQLAEIAIDVTSVYVVGYQVRNRSYFFKDAPDAAYEGLFKNTIKTRLHFGGSYPSLEGEKAYRETTDLGIEPLRIGIKKLDENAIDNYKPTEIASSLLVVIQMVSEAARFTFIENQIRNNFQQRIRPANNTISLENKWGKLSFQIRTSGANGMFSEAVELERANGKKYYVTAVDQVKPKIALLKFVDKDPKDDDDDDDDDD
Question: With B1 as the molecule, how does the “diameter / measured size (DLS)” value read?
Answer: about 2.9 nm
